Source: the supplement of paper PMC7125110
± gives the standard error. For some of these results: Variants at the floor of the assay were thinned out.

B1: glmS ribozyme (parent)
chain: AUAAAAGCGCCAGAACUACAGAAAUGUAGUUGACGAGGAGGAGGUUUAUCGAAUUUUCGGCGGAUGCCUCCAAA

How the values were obtained:
Settings in all cases: with glucosamine-6-phosphate
glucosamine-6-phosphate [1] = variants of: B1; experiment: kcat; higher = faster cleavage; RNA array
In short: (§1)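 Barcoded ribozyme variants were transcribed in situ on sequenced MiSeq chips by E. coli RNA polymerase. At 37 °C, a hybridised Cy3 probe tracked them while glucosamine-6-phosphate (40 μM to 10 mM) in HEPES/KCl/Mg(OAc)2 buffer flowed in and tiles were imaged over ~14 h. Per-tile medians of signals normalised to baseline and to non-cleaving reference variants were fit to one- or two-exponential decays, giving kobs. kcat and KM came from weighted Michaelis–Menten fits across concentrations.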

glucosamine-6-phosphate [2] = variants of: B1; experiment: KM; higher = weaker cofactor use; RNA array
In short: as §1

glucosamine-6-phosphate [3] = variants of: B1; experiment: self-cleavage kobs at 640 uM GlcN6P; higher = faster cleavage; RNA array
In short: as §1

glucosamine-6-phosphate [4] = variants of: B1; experiment: self-cleavage kobs at 2500 uM GlcN6P; higher = faster cleavage; RNA array
In short: as §1

glucosamine-6-phosphate [5] = variants of: B1; experiment: self-cleavage kobs at 10000 uM GlcN6P; higher = faster cleavage; RNA array
In short: as §1

glucosamine-6-phosphate [6] = variants of: B1; experiment: self-cleavage kobs at 40 uM GlcN6P; higher = faster cleavage; RNA array
In short: as §1

glucosamine-6-phosphate [7] = variants of: B1; experiment: self-cleavage kobs at 160 uM GlcN6P; higher = faster cleavage; RNA array
In short: as §1

Row | Variant | kcat (glucosamine-6-phosphate [1]) [s⁻¹] | KM (glucosamine-6-phosphate [2]) [µM] | self-cleavage kobs at 640 uM GlcN6P (glucosamine-6-phosphate [3]) [s⁻¹] | self-cleavage kobs at 2500 uM GlcN6P (glucosamine-6-phosphate [4]) [s⁻¹] | self-cleavage kobs at 10000 uM GlcN6P (glucosamine-6-phosphate [5]) [s⁻¹] | self-cleavage kobs at 40 uM GlcN6P (glucosamine-6-phosphate [6]) [s⁻¹] | self-cleavage kobs at 160 uM GlcN6P (glucosamine-6-phosphate [7]) [s⁻¹]
1 | AUAAAAGCGCAAGAACUACAGAAAUGUAGUUGACGAGGAGGAGGAUUAUCGAAUUUUCGGCGGAUGCCUCCAAA [C11A U45A] | 0.000361 ± 6.9e-05 | 3010 ± 1100 | 5.63e-05 ± 1.2e-05 | 0.000214 ± 3.6e-05 | 0.000262 ± 3.8e-05 |  | 
2 | AUAAAAGCGCGAGAGCUACAGAAAUGUAGUUGACGAGGAGGAGGUUUAUCGAAUUUUCGGCGGAUGCCUCCAAA [C11G A15G] | 1.01e-05 ± 1.4e-06 |  | < 1e-05 |  |  |  | 
3 | AUAAAAGCGCUAGGACUACAGAAAUGUAGUUGACGAGGAGGAGGUUUAUCGAAUUUUCGGCGGAUGCCUCCAAA [C11U A14G] | 0.0102 ± 0.0018 | 2230 ± 580 | 0.00207 ± 0.0003 | 0.00674 ± 0.0012 | 0.00811 ± 0.001 | 0.000229 ± 4e-05 | 0.000583 ± 0.00013
4 | AUAAAAGCGCAAGAACUACAGAAAUGUAGUUGACGAGGAGGAGGUUUAUCGAAUUUUCGGCGGAUGCCCCCAAA [C11A U69C] | 6.61e-05 ± 1e-05 |  | 7.71e-05 ± 3.5e-05 | 7.67e-05 ± 1.5e-05 | 4.97e-05 ± 1.6e-05 |  | 
5 | AUAAAAGCGCUAGAACUACAGAAAUGUAGUUGACGAGGAGGGGGUUUAUCGAAUUUUCGGCGGAUGCCUCCAAA [C11U A42G] | 0.00345 ± 0.0015 |  | 0.000561 ± 0.00013 | 0.00178 ± 0.0004 | 0.0022 ± 0.00065 | 9.14e-05 ± 3.5e-05 | 0.000114 ± 3e-05
6 | AUAAAAGCGCAAGAACUACAGAAAUGUAGUAGACGAGGAGGAGGUUUAUCGAAUUUUCGGCGGAUGCCUCCAAA [C11A U31A] | 0.00019 ± 2e-05 | 1480 ± 350 | 5.42e-05 ± 1e-05 | 0.000147 ± 2.8e-05 | 0.000158 ± 2.3e-05 |  | 
7 | AUAAAAGCGCAAGAACUACAGAAAUGUAGUGGACGAGGAGGAGGUUUAUCGAAUUUUCGGCGGAUGCCUCCAAA [C11A U31G] | 0.000375 ± 9.9e-05 | 3900 ± 1600 | 4.58e-05 ± 1.1e-05 | 0.000179 ± 3.7e-05 | 0.000253 ± 5.7e-05 |  | 
8 | AUAAAAGCGCGAGAACUACAGAAAUGUAGUUGACGAGGAGGAAGUUUAUCGAAUUUUCGGCGGAUGCCUCCAAA [C11G G43A] | < 1e-05 | 525 ± 190 | < 1e-05 |  | < 1e-05 | < 1e-05 | < 1e-05
